Here are results for 14 molecules from patent US20240336681A1 (LUDWIG MAXIMILIANS UNIVERSIT T M NCHEN, published 2024).

Residue numbers refer to the chain shown, from its start.

In experiment [1] the target is T1, recombinant C-terminally His-tagged human CD47 (extracellular domain) (human, UniProt Q08722 19-141).
T1 construct: also called recombinantly expressed human CD47 extracellular domain
The experiment is described as follows: SPR, Biacore X100; construct captured by anti-human Fc on CM5 chip, human CD47 extracellular domain as analyte, 1:1 fit. The protocol: (§1) Surface Plasmon Resonance (SPR) was used in addition to analyse binding of the different protein constructs to recombinantly expressed CD47 and to determine their affinity. Association (Kₒₙ) and dissociation (Koff) rate constants were determined by SPR using a Biacore™ X-100 (Cytiva). Using the Human antibody capture kit an anti-human Fc antibody was immobilized on a CM5 sensor chip in a covalent manner using the Amine coupling Kit according to manufacturer's instructions. Humanized anti-hCD47 IgGs were injected as ligand to reach a surface coverage of approximately 100 RU-400 RU. Recombinantly expressed human CD47 extracellular domain was used as analyte and injected in increasing concentrations (e. g. from 3.9 to 1000 nM), with standard association time of 120 s and dissociation time of 600 s. Experiments were performed in multi-cycle kinetics runs, with regeneration between sample injection with the respective regeneration buffer (3M MgCl2 for the human antibody capture kit). All reagents were diluted in HBS-EP+ buffer (Cytiva). Data are fit to a simple 1:1 interaction model using the global data analysis option available within BiaEvaluation 2.0.1 software. The dissociation constant (KD) was used as a value for the affinity and was calculated from the ratio between Koff and Kₒₙ.
(In general: SPR reads the build-up and loss of mass on a sensor chip optically.)

In experiment [2] the target is recombinant C-terminally His-tagged human CD47 (extracellular domain) (human) (UniProt Q08722). The experiment is described as above.
Sequence of recombinant C-terminally His-tagged human CD47 (extracellular domain) (human) (Q08722 19-141): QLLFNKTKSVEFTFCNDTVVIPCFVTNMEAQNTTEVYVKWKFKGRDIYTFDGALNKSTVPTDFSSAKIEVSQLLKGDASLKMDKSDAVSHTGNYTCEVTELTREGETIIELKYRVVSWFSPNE
Experiment [3] shares this target. The experiment is described as follows: SPR, Biacore X100; construct captured by anti-human Fc on a CM5 chip, CD47 extracellular domain as analyte, 1:1 fit.
The next experiment deals with T2, human CD47 on cells (human, UniProt Q08722 19-323).
T2 construct: also called CD47 on Molm-13, OVCAR-3, Suit-2 MSLN, HL-60 cells, red blood cells and CD47-transfected CHO cells
T2 sequence (Q08722 19-323): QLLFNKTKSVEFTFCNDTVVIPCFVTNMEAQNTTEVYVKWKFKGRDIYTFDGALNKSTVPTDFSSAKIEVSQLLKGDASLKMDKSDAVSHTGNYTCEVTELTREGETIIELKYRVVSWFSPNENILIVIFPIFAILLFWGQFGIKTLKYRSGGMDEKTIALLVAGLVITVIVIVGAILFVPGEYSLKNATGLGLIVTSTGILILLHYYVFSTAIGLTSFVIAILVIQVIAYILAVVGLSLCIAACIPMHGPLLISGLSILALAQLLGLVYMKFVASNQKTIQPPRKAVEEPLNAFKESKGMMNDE
In words: flow cytometry on CD47-positive Expi293 cells, 50 nM antibody; MFI of the antibody over MFI of the isotype control. As for the experimental part:
Initially, binding of anti-hCD47 IgG4, anti-hCD47 IgG1 antibodies and Fab domains were measured on CD47-expressing cells by flow cytometry. Cells were stained with 50 nM of antibody followed by staining with a secondary fluorescently labelled anti-human IgG Fc or light-chain antibody, and analyzed by flow cytometry. Binding was measured by calculating the median fluorescence intensity (MFI) ratio, by dividing MFI of the antibody by the MFI of the isotype control.
In general terms: A flow cytometer gives signals particle by particle.

The target of experiment [4] is T1, recombinant C-terminally His-tagged …. In words: SPR, Biacore X100; antibody captured by anti-human Fc on a CM5 chip, CD47 extracellular domain as analyte, 1:1 fit. The protocol:
as §1

For experiment [5] the target is unchanged. The experiment is described as follows: SPR, Biacore X100.
Experiment [6] has the same target. The experiment is described as follows: SPR, Biacore X100; format for the scFv not described.
Experiment [7] deals with recombinant C-terminally His-tagged human CD47 (extracellular domain) (human) (UniProt Q08722). The experiment is described as follows: SPR, Biacore X100; analyte hCD47 31.25 to 2000 nM.
The target is the same in experiment [8]. In words: SPR (affinity to CD47 as measured by SPR).

T1 sequence (Q08722 19-141): as the sequence (Q08722 19-141) above

B1: 2D6-000 (antibody, V domains shown)
VH: QVQLQQSGPELVKPGTSVTLSCKASGYTFPSYDINWMKQRPGQGLEWIGWIYPRDGSPKYNEKFKGKATLTVDTSSSTAYMELHSLTSEDSAVYFCARSVYYGTQFAYWGQGTLVTVSA
VL: DIVMSQSPSSLAVSAGEKVTMSCKSSQSLLNSRTRKNYLAWYQQKPGQSPKLLIYWASTRDSGVPDRFTGSGSGTDFTLTISSVQAEDLAVYYCKQSFNLVTFGAGTKLELK
notes: Constant regions come from the vectors pFUSE-CHIg-hG4 and pFUSE2-CLIg-hk; also called anti-CD47 IgG4 (2D6-000)
In general, Kd refers to the constant that tells how readily two partners part at equilibrium. Turning to B1, in experiment [1], the dissociation constant (Kd) stood at 0.0561 µM.

B2: 2D6-031 (bispecific antibody, part only; not given: linkers and anti-TAA IgG1 chains, V domains shown, not shown: another chain or arm of the molecule; large carriers; small tags and cut ends)
VH: QVQLVESGGGLVQPGGSLRLSCAASGYTFPSYDINWVRQAPGKGLEWVGWIYPRDGSPKYNEKFKGRFTISADTSKNTAYLQMNSLRAEDTAVYYCARSVYYGTQFAYWGQGTLVTVSS
VL: DIQMTQSPSSLSASVGDRVTITCKSSQSLLNSRTRKNYLAWYQQKPGKAPKLLIYWASTRDSGVPSRFSGSGSGTDFTLTISSLQPEDFATYYCKQSFNLVTFGQGTKVEIK
Usually koff stands for the rate constant with which the complex falls apart. What is called kon is the rate constant with which the complex forms. Take B2: the dissociation constant Kd in experiment [2] is 0.138 µM. For the same molecule, in experiment [3], the koff was found to be 0.14 s⁻¹ and the kon was found to be 990000 M⁻¹ s⁻¹.

B3: 2D6-016 (antibody, IgG4, V domains shown)
VH: B2 VH
VL: B2 VL with Q3V, S66D
notes: hIgG4 (humanized IgG4); only the variable domains are tied to the construct; also called VH4/VL4
Turning to B3, the dissociation constant Kd in experiment [1] stood at 0.203 µM. In the experiment with human CD47 on cells, the MFI ratio turned out to be 3.42. For the same molecule, in experiment [4], the dissociation constant Kd was found to be 0.203 µM, the koff turned out to be 0.36 s⁻¹ and the kon stood at 1.8e+06 M⁻¹ s⁻¹.

B4: 2D6-015 (antibody, IgG4, V domains shown)
VH: B2 VH
VL: B2 VL
notes: hIgG4 (humanized IgG4); only the variable domains are tied to the construct; also called VH4/VL3
Take B4: in [1], the Kd is 0.311 µM. The MFI ratio with human CD47 on cells came out at 4.14. Moreover, in [4], the dissociation constant Kd was found to be 0.31 µM, the dissociation rate constant (koff) turned out to be 0.22 s⁻¹ and the kon was 710000 M⁻¹ s⁻¹.

B5: 2D6-032 (bispecific antibody, part only; not given: linkers and anti-TAA IgG1 chains, V domains shown, not shown: another chain or arm of the molecule; large carriers; small tags and cut ends)
VH: B2 VH
VL: B2 VL with Q3V, S66D
Take B5: the equilibrium dissociation constant (Kd) in experiment [2] was determined as 0.141 µM. Besides, in experiment [3], the koff worked out at 0.13 s⁻¹ and the on-rate (kon) was determined as 960000 M⁻¹ s⁻¹.

B6: 2D6-096 (scFv, V domains shown, not shown: small tags and cut ends)
VH: B2 VH with P30T
VL: B2 VL
notes: Standalone scFv; also called anti-CD47 scFv (2D6-096); VH3/VL3
As for B6, in experiment [5], the koff turned out to be 0.00163 s⁻¹ and the on-rate constant (kon) was found to be 81500 M⁻¹ s⁻¹. Also, the Kd in experiment [6] came out at 0.02 µM.

B7: MSL-745 (bispecific antibody, part only; not given: anti-mesothelin IgG1 chains and linkers, V domains shown, not shown: another chain or arm of the molecule; large carriers; small tags and cut ends)
VH: QVELVQSGPEVKKPGSSVKVSCKASGYTFPSYDINWVRQRPGQCLEWMGGIYPRSGSPKYNEKFKGRVTITADTSTSTAYMELHSLRSEDTAVYYCARSVYYGTQFAYWGQGTLVTVSA
VL: DIVLTQSPSSLAVSLGERVTMSCKSSQSLLNSRTRKNYLAWYQQKPGQPPKLLIYWASTRDSGVPDRFSGSGSGTDFTLTISSLQAEDVAVYYCQQSFNLVTFGCGTKLEIK
With B7, in experiment [7], the koff came to 0.396 s⁻¹ and the on-rate constant (kon) was determined as 685000 M⁻¹ s⁻¹. In addition, the dissociation constant Kd in [2] is 0.578 µM.

B8: 2D6-056 (bispecific antibody, part only; not given: linkers and anti-TAA IgG1 chains, V domains shown, not shown: another chain or arm of the molecule; large carriers; small tags and cut ends)
VH: B7 VH with C44G
VL: B7 VL with C105G
As for B8, in [8], the Kd was 0.659 µM.

B9: 2D6-076 (antibody, IgG1, V domains shown)
VH: B7 VH with C44G, G50W, S55D
VL: B7 VL with C105G
notes: hIgG1 (humanized IgG1); only the variable domains are tied to the construct; also called VH2/VL2.7
Take B9: the Kd in [1] was 0.974 µM. In experiment [4], the equilibrium dissociation constant (Kd) was 0.97 µM, the koff turned out to be 0.48 s⁻¹ and the on-rate (kon) stood at 490000 M⁻¹ s⁻¹.

B10: 2D6-059 (bispecific antibody, part only; not given: linkers and anti-TAA IgG1 chains, V domains shown, not shown: another chain or arm of the molecule; large carriers; small tags and cut ends)
VH: B7 VH
VL: B7 VL
Take B10: in experiment [8], the Kd is 0.568 µM.

B11: 2D6-022 (bispecific antibody, part only; not given: linkers and anti-TAA IgG1 chains, V domains shown, not shown: another chain or arm of the molecule; large carriers; small tags and cut ends)
VH: B7 VH with C44G, G50W, S55D
VL: B7 VL with Q95K, C105G
On to B11, for which, in experiment [2], the Kd came out at 0.106 µM. Also, in experiment [3], the koff was 0.07 s⁻¹ and the on-rate (kon) stood at 660000 M⁻¹ s⁻¹.

B12: 2D6-067 (antibody, IgG1, V domains shown)
VH: B7 VH with C44G, G50W, S55F
VL: B7 VL with L4M, Q95K, C105G
notes: hIgG1 (humanized IgG1); only the variable domains are tied to the construct; also called VH2.5/VL2
As to B12, the Kd in [1] amounted to 0.219 µM. Further, in experiment [4], the dissociation constant Kd amounted to 0.219 µM, the dissociation rate constant (koff) was 0.16 s⁻¹ and the kon was 720000 M⁻¹ s⁻¹.

B13: 2D6-005 (antibody, IgG4, V domains shown)
VH: B7 VH with C44G, G50W, S55D
VL: B2 VL with Q3V, M4L, I21M, T22S, F89I, Q105G, V109L
notes: hIgG4 (humanized IgG4), human kappa constant light chain from vector; only the variable domains are tied to the construct; also called VH2/VL1
B13: in experiment [1], the Kd was 0.176 µM. Also, in the experiment with human CD47 on cells, the MFI ratio worked out at 4.95. Besides, in experiment [4], the Kd was 0.17 µM, the koff is 0.13 s⁻¹ and the on-rate constant (kon) amounted to 760000 M⁻¹ s⁻¹.

B14: 2D6-066 (antibody, IgG1, V domains shown)
VH: B7 VH with C44G, G50W, Y52I, S55D
VL: B7 VL with L4M, Q95K, C105G
notes: hIgG1 (humanized IgG1); only the variable domains are tied to the construct; also called VH2.4/VL2
As for B14, in [1], the Kd was found to be 1.31 µM. Further, in experiment [4], the Kd came to 1.31 µM, the koff was found to be 0.32 s⁻¹ and the on-rate (kon) was 250000 M⁻¹ s⁻¹.
